Here are results for four molecules from patent publication US20240226230A1 (MAYO FOUNDATION FOR MEDICAL EDUCATION AND RESEARCH, published 2024).

Where no end group is shown, it is not given here.

Test [1] concerns the target T1, mCherry-KPNB1 (Homo sapiens (Human), UniProt Q14974 1-876).
T1 construct: mCherry was cloned into GFP-KPNB1; also called mCherry-tagged KPNB1; not shown: mCherry tag (mCherry-C1, Clontech)
The test is described as follows: co-IP with mCherry-KPNB1, western blot. An excerpt:
FIG. 30B) Lysates from HEK293T cells co-expressing mCherry-KPNB1 with GFP, GFP-TDP-CTF or GFP-TDP-CTF C-terminal deletion constructs were subjected to immunoprecipitation with RFP-Trap magnetic beads. Whole cell lysates (input) and immunoprecipitates (IP) were subjected to western blot analysis using indicated antibodies. Deletion of amino-acids 230-240 in TDP-CTF reduced its binding to KPNB1. FIG. 30C) Lysates from HEK293T cells co-expressing mCherry-KPNB1 with GFP, GFP-TDP-CTF or GFP-TDP-CTF N-terminal deletion constructs were subjected to immunoprecipitation with RFP-Trap magnetic beads. Whole cell lysates (input) and immunoprecipitates (IP) were subjected to western blot analysis using indicated antibodies. Deletion of amino-acids 230-240 in TDP-CTF reduces its binding to KPNB1. TDP-PrLD weakly interacts with KPNB1. FIG. 30D) (Left) Lysates from HEK293T cells co-expressing mCherry-KPNB1 with GFP, GFP-TDP-CTF^WT or GFP-TDP-CTF^Δ230-240 were subjected to immunoprecipitation with RFP-Trap magnetic beads. […] (Right) Quantification of relative GFP levels in IP normalized by GFP levels in input confirm that GFP-TDP-CTF^Δ230-240 interacts less with mCherry-KPNB1. […] FIG. 30F) Western blot analysis and quantification of insoluble GFP-tagged TDP-CTF^WT or TDP-CTF^Δ230-240 in HEK293T cells expressing mCherry or mCherry-KPNB1. […]
A general note: A western blot detects proteins with antibodies after separation by electrophoresis.

Test [2] concerns the target T2, GFP-KPNB1 full-length (FL) (Homo sapiens (Human), UniProt Q14974 1-876).
T2 construct: the plasmid is GFP-KPNB1 (Euroscarf #P30478); The linker is stated in general for fluorescent protein fusions; also called EGFP-KPNB1; GFP-KPNB1^FL; not shown: GFP/EGFP tag (pEGFP-C1, Clontech)
The test is described as follows: co-IP of GFP-tagged KPNB1 truncations, western blot. An excerpt: FIG. 21A) Schematic domain structure of KPNB1. KPNB1 is comprised of 19 HEAT repeats (H1-19). RanGTP and importin-α interact with H1-8 and H8-19, respectively. FG-Nups bind to two regions of KPNB1, H5-7 and H14-16. FIG. 21B) Lysates from HEK293T cells expressing GFP, GFP-KPNB1 full-length (FL), N-terminal fragments of KPNB1 (H1-9 . . . H1) or the C-terminal fragment of KPNB1 (H10-19) were subjected to immunoprecipitation with GFP-Trap magnetic beads. Whole cell lysates (input) and immunoprecipitates (IP) were subjected to western blot analysis using indicated antibodies. KPNB1 H1-8, the smallest fully active KPNB1 fragment in reducing TDP-43 aggregation, strongly interacts with FG-Nups and Ran, and weakly with importin-al in comparison with full-length KPNB1. FIG. 21C) (Top) Schematic domain structure of KPNB1 H1-8^mNIS harboring four missense mutations (1178A, F217A, Y255A, I263R) in the nucleoporin-interacting site (NIS). (Bottom) Lysates from HEK293T cells expressing GFP, GFP-KPNB1 H1-8^WT or H1-8^mNIS were subjected to immunoprecipitation with GFP-Trap magnetic beads. Whole cell lysates (input) and immunoprecipitates (IP) were subjected to western blot analysis using indicated antibodies. […] Hoechst staining was used to outline nuclei. Scale bar: 5 μm. […] Statistical analysis was performed using one-way ANOVA and Bonferroni's post hoc test (**p<0.01, ***p<0.001, n=4). FIG. 21F) IF of HEK293T cells co-expressing GFP-(GR)₁₀₀ with an empty plasmid (ctrl), FLAG-tagged KPNB1 H1-8^WT or H1-8^mNIS and stained for endogenous TDP-43. Unlike KPNB1 H1-8^mNIS, KPNB1 H1-8^WT prevents the sequestration of endogenous TDP-43 in cytoplasmic GR aggregates. Arrowheads point to cytoplasmic GR aggregates. Hoechst staining was used to outline nuclei. Scale bar: 5 μm.

In test [3] the target is T3, Untagged KPNB1 (Homo sapiens (Human), UniProt Q14974 1-876).
T3 construct: KPNB1 amplified by PCR and cloned into pEGFP-C1 lacking the GFP tag; also called Wildtype KPNB1
T3 sequence (Q14974 whole entry): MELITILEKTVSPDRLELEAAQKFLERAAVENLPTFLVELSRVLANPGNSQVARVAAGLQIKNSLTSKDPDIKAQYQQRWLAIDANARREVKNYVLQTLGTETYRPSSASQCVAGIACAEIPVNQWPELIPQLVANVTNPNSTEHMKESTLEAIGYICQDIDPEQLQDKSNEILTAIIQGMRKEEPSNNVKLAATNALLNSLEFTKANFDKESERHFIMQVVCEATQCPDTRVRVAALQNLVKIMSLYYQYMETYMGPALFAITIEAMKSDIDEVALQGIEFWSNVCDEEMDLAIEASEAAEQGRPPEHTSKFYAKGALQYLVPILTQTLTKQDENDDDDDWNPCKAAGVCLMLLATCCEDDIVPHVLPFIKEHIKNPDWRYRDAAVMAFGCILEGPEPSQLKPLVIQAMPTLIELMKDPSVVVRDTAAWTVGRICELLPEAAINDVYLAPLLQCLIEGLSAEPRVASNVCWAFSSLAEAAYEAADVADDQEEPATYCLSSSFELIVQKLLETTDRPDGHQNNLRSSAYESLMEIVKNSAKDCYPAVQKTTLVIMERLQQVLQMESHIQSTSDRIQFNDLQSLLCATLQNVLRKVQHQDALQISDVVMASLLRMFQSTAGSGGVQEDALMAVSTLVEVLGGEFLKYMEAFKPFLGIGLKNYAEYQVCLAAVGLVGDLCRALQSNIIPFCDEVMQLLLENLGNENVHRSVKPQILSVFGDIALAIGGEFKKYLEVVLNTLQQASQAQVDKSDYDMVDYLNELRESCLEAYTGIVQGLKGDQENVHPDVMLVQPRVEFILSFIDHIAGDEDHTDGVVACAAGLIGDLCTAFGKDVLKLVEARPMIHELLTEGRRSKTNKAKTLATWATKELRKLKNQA
The test is described as follows: GFP-Trap IP from HEK293T lysates, western blot. An excerpt:
FIGS. 29A-29C: Untagged KPNB1 interacts with both the RRM2 and PrLD of TDP-CTF. FIG. 29A) (Left) Lysates from HEK293T cells expressing GFP alone, or untagged KPNB1 with GFP, GFP-TDP-CTF or GFP-TDP43^WT were subjected to immunoprecipitation with GFP-Trap magnetic beads. Whole cell lysates (input) and immunoprecipitates (IP) were subjected to western blot analysis using indicated antibodies. (Right) Quantification of relative KPNB1 levels in IP normalized by KPNB1 levels in input. Statistical analysis was performed using one-way ANOVA and Bonferroni's post hoc test (**p<0.01, ***p<0.001, n=3). […] FIG. 29C) (Left) Lysates from HEK293T cells expressing GFP alone, or untagged KPNB1 with GFP, GFP-TDP-CTF, GFP-TDP-CTF^non-PrLD or GFP-TDP-PrLD were subjected to immunoprecipitation with GFP-Trap magnetic beads. Whole cell lysates (input) and immunoprecipitates (IP) were subjected to western blot analysis using indicated antibodies. (Right) Quantification of relative KPNB1 levels in IP normalized by KPNB1 levels in input. Statistical analysis was performed using one-way ANOVA and Bonferroni's post hoc test (***p<0.001, n=3).
FIGS. 31A-31C: The PrLD of TDP-43 interacts with FG-Nups and KPNB1. FIG. 31A) Immunofluorescence (IF) of HEK293T cells expressing GFP or GFP-TDP-PrLD and stained for endogenous Nup98 and Nup62. TDP-PrLD forms small cytoplasmic foci positive for Nup62. FIG. 31B) IF of HEK293T cells expressing GFP or GFP-TDP-PrLD and stained for endogenous KPNB1. KPNB1 colocalizes with TDP-PrLD foci in the cytoplasm. Hoechst staining was used to outline nuclei. Scale bar: 5 μm. FIG. 31C) Lysates from HEK293T cells expressing GFP or GFP-TDP-PrLD were subjected to immunoprecipitation with GFP-Trap magnetic beads. Whole cell lysates (input) and immunoprecipitates (IP) were subjected to western blot analysis using indicated antibodies. The PrLD of TDP-43 interacts with Nup62, Nup98 and KPNB1, but not with Ran.
HEK293T cells were seeded in 6-well plates and transfected for 48 hours. Cells were then lysed in IP Lysis buffer (Fisher) supplemented with a protease inhibitor cocktail (Roche), and were centrifuged at 15000 rpm for 20 minutes at 4° C. A small aliquot of the recovered supernatant was set aside (input).

T2 sequence (Q14974 other isoform, or with tags, fused parts or gaps): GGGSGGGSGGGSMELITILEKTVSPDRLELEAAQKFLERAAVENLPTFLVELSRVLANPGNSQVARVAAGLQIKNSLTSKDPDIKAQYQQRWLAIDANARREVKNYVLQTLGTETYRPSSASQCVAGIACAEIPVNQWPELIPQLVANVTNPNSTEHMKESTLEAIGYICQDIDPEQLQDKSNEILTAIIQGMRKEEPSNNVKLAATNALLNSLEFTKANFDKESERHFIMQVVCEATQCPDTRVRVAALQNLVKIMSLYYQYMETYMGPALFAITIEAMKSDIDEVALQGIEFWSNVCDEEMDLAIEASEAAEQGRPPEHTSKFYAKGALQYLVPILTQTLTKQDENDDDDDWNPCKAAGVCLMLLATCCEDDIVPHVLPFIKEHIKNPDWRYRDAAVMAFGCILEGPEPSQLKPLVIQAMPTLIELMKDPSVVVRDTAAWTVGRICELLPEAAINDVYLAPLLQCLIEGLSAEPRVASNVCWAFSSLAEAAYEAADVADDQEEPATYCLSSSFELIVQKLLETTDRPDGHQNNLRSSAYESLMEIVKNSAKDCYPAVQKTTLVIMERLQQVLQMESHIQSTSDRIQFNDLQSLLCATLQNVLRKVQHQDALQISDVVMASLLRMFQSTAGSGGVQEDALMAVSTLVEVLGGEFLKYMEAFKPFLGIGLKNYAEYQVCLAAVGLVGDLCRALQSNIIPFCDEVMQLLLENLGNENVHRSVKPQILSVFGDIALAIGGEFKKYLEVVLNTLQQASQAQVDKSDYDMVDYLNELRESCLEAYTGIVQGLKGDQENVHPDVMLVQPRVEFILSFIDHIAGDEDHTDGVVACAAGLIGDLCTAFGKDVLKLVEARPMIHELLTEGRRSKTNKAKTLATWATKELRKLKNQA
T1 sequence (Q14974 other isoform, or with tags, fused parts or gaps): as above

B1: GFP-TDP-CTF 208-239 (other, human)
chain: {GFP}-GGGSGGGSGGGSREFFSQYGDVMDVFIPKPFRAFAFVTFADDQI
modifications: also: GFP tag fused N-terminally, not in chain, (GGGS)3 linker in chain
notes: not shown: GFP/EGFP tag (pEGFP-C1, Clontech)
B1: in test [1], the binding result is “binds”.

B2: endogenous Nup50 (other, human, UniProt Q9UKX7 1-468, looked up)
chain: MAKRNAEKELTDRNWDQEDEAEEVGTFSMASEEVLKNRAIKKAKRRNVGFESDTGGAFKGFKGLVVPSGGGRFSGFGSGAGGKPLEGLSNGNNITSAPPFASAKAAADPKVAFGSLAANGPTTLVDKVSNPKTNGDSQQPSSSGLASSKACVGNAYHKQLAALNCSVRDWIVKHVNTNPLCDLTPIFKDYEKYLANIEQQHGNSGRNSESESNKVAAETQSPSLFGSTKLQQESTFLFHGNKTEDTPDKKMEVASEKKTDPSSLGATSASFNFGKKVDSSVLGSLSSVPLTGFSFSPGNSSLFGKDTTQSKPVSSPFPTKPLEGQAEGDSGECKGGDEEENDEPPKVVVTEVKEEDAFYSKKCKLFYKKDNEFKEKGIGTLHLKPTANQKTQLLVRADTNLGNILLNVLIPPNMPCTRTGKNNVLIVCVPNPPIDEKNATMPVTMLIRVKTSEDADELHKILLEKKDA
notes: Detected with anti-Nup50
Consider B2, for which, in test [2], the binding result is “binds”.

B3: endogenous Nup62 (other, human, UniProt P37198 2-522, looked up)
chain: SGFNFGGTGAPTGGFTFGTAKTATTTPATGFSFSTSGTGGFNFGAPFQPATSTPSTGLFSLATQTPATQTTGFTFGTATLASGGTGFSLGIGASKLNLSNTAATPAMANPSGFGLGSSNLTNAISSTVTSSQGTAPTGFVFGPSTTSVAPATTSGGFSFTGGSTAQPSGFNIGSAGNSAQPTAPATLPFTPATPAATTAGATQPAAPTPTATITSTGPSLFASIATAPTSSATTGLSLCTPVTTAGAPTAGTQGFSLKAPGAASGTSTTTSTAATATATTTSSSSTTGFALNLKPLAPAGIPSNTAAAVTAPPGPGAAAGAAASSAMTYAQLESLINKWSLELEDQERHFLQQATQVNAWDRTLIENGEKITSLHREVEKVKLDQKRLDQELDFILSQQKELEDLLSPLEELVKEQSGTIYLQHADEEREKTYKLAENIDAQLKRMAQDLKDIIEHLNTSGAPADTSDPLQQICKILNAHMDSLQWIDQNSALLQRKVEEVTKVCEGRRKEQERSFRITFD
notes: Detected with anti-Nup62
For B3, the binding result in test [2] is recorded as “binds”.

B4: GFP-TDP-CTF non-PrLD (other, human)
chain: GGGSGGGSGGGSREFFSQYGDVMDVFIPKPFRAFAFVTFADDQIAQSLCGEDLIIKGISVHISNAEPKHNSNRQLERSG
notes: as for B1
With B4, in test [3], the binding result is listed as “binds”.
